Test results taken from patent US20180094059A1 (UNIVERSITAT STUTTGART, published 2018).
Where two headings read alike, the source gives them in different places.

Experiments:
[1] = molecular target: T1, EGFR on EGFR-positive tumor cell lines (UniProt P00533 25-1210, limits assumed); assay: cell-based or functional assay
[2] = molecular target: T1, EGFR on EGFR-positive tumor cell lines; assay: cell-based or functional assay; remark: listed apart in the source

B1: Dbhu225-scTRAIL3-FLVGGGPQRVA (other, not shown: small tags and cut ends)
chain: DYKDDDDKGGGGSGTEVQLVESGGGLVQPGGSLRLSCAASGFSLTNYGVHWVRQAPGKGLEWLGVIWSGGNTDYNTPFTSRFTISRDNSKNTLYLQMNSLRAEDTAVYYCARALTYYDYEFAYWGQGTTVTVSSGGGGSDIQLTQSPSFLSASVGDRVTITCRASQSIGTNIHWYQQKPGKAPKLLIKYASESISGVPSRFSGSGSGTEFTLTISSLQPEDFATYYCQQNNNWPTTFGAGTKLEIKRAAAGGSGGGPQRVAAHITGTRGRSNTLSSPNSKNEKALGRKINSWESSRSGHSFLSNLHLRNGELVIHEKGFYYIYSQTYFRFQEEIKENTKNDKQMVQYIYKYTSYPDPILLMKSARNSCWSKDAEYGLYSIYQGGIFELKENDRIFVSVTNEHLIDMDHEASFFGAFLVGGGPQRVAAHITGTRGRSNTLSSPNSKNEKALGRKINSWESSRSGHSFLSNLHLRNGELVIHEKGFYYIYSQTYFRFQEEIKENTKNDKQMVQYIYKYTSYPDPILLMKSARNSCWSKDAEYGLYSIYQGGIFELKENDRIFVSVTNEHLIDMDHEASFFGAFLVGGGPQRVAAHITGTRGRSNTLSSPNSKNEKALGRKINSWESSRSGHSFLSNLHLRNGELVIHEKGFYYIYSQTYFRFQEEIKENTKNDKQMVQYIYKYTSYPDPILLMKSARNSCWSKDAEYGLYSIYQGGIFELKENDRIFVSVTNEHLIDMDHEASFFGAFLVG
**Q.** How did the “EC50 of cell death induction, Colo205, with Bortezomib” value [1] turn out when B1 was run?
**A.** 0.0038 nM

**Q.** What about the “EC50 of cell death induction, Colo205, without bortezomib” value [1] of the same binder?
**A.** 0.041 nM

**Q.** What about the “EC50 of cell death induction, Colo205 in presence of Cetuximab, with bortezomib” value [1] of the same binder?
**A.** 0.0138 nM

**Q.** And the “EC50 of cell death induction, Colo205 in presence of Cetuximab, without bortezomib” value [1]?
**A.** 0.102 nM

B2: dsDbhu225-scTRAIL3-FLVGGGPQRVA (other, not shown: small tags and cut ends)
chain: DYKDDDDKGGGGSGTEVQLVESGGGLVQPGGSLRLSCAASGFSLTNYGVHWVRQAPGKCLEWLGVIWSGGNTDYNTPFTSRFTISRDNSKNTLYLQMNSLRAEDTAVYYCARALTYYDYEFAYWGQGTTVTVSSGGGGSDIQLTQSPSFLSASVGDRVTITCRASQSIGTNIHWYQQKPGKAPKLLIKYASESISGVPSRFSGSGSGTEFTLTISSLQPEDFATYYCQQNNNWPTTFGCGTKLEIKRAAAGGSGGGPQRVAAHITGTRGRSNTLSSPNSKNEKALGRKINSWESSRSGHSFLSNLHLRNGELVIHEKGFYYIYSQTYFRFQEEIKENTKNDKQMVQYIYKYTSYPDPILLMKSARNSCWSKDAEYGLYSIYQGGIFELKENDRIFVSVTNEHLIDMDHEASFFGAFLVGGGPQRVAAHITGTRGRSNTLSSPNSKNEKALGRKINSWESSRSGHSFLSNLHLRNGELVIHEKGFYYIYSQTYFRFQEEIKENTKNDKQMVQYIYKYTSYPDPILLMKSARNSCWSKDAEYGLYSIYQGGIFELKENDRIFVSVTNEHLIDMDHEASFFGAFLVGGGPQRVAAHITGTRGRSNTLSSPNSKNEKALGRKINSWESSRSGHSFLSNLHLRNGELVIHEKGFYYIYSQTYFRFQEEIKENTKNDKQMVQYIYKYTSYPDPILLMKSARNSCWSKDAEYGLYSIYQGGIFELKENDRIFVSVTNEHLIDMDHEASFFGAFLVG
**Q.** What does the source list for B2?
**A.** EC50 of cell death induction, Colo205, with Bortezomib [1]: 0.0025 nM; EC50 of cell death induction, Colo205, without bortezomib [1]: 0.0212 nM; EC50 of cell death induction, Colo205 in presence of Cetuximab, with bortezomib [1]: 0.0072 nM; EC50 of cell death induction, Colo205 in presence of Cetuximab, without bortezomib [1]: 0.0423 nM

B3: Db8-Glyco-scTRAIL3-FAVSGAA (other)
chain: LEASDYKDDDDKGAEVQLVESGGGLVQPGGSLRLSCAASGFSLTNYGVHWVRQAPGKGLEWLGVIWSGGNTDYNTPFTSRFTISRDNSKNTLYLQMNSLRAEDTAVYYCARALTYYDYEFAYWGQGTTVTVSSGGGGSGGGDIQLTQSPSFLSASVGDRVTITCRASQSIGTNIHWYQQKPGKAPKLLIKYASESISGVPSRFSGSGSGTEFTLTISSLQPEDFATYYCQQNNNWPTTFGAGTKLEIKRAAAGNGTSNGTSEFGGAAAHITGTRGRSNTLSSPNSKNEKALGRKINSWESSRSGHSFLSNLHLRNGELVIHEKGFYYIYSQTYFRFQEEIKENTKNDKQMVQYIYKYTSYPDPILLMKSARNSCWSKDAEYGLYSIYQGGIFELKENDRIFVSVTNEHLIDMDHEASFFGAFAVSGAAAHITGTRGRSNTLSSPNSKNEKALGRKINSWESSRSGHSFLSNLHLRNGELVIHEKGFYYIYSQTYFRFQEEIKENTKNDKQMVQYIYKYTSYPDPILLMKSARNSCWSKDAEYGLYSIYQGGIFELKENDRIFVSVTNEHLIDMDHEASFFGAFAVSGAAAHITGTRGRSNTLSSPNSKNEKALGRKINSWESSRSGHSFLSNLHLRNGELVIHEKGFYYIYSQTYFRFQEEIKENTKNDKQMVQYIYKYTSYPDPILLMKSARNSCWSKDAEYGLYSIYQGGIFELKENDRIFVSVTNEHLIDMDHEASFFGAFAVS
modifications: glycosylated connecting peptide
**Q.** Which results are given for B3?
**A.** EC50 of cell death induction, Colo205, with Bortezomib [2]: 0.026 nM; EC50 of cell death induction, Colo205, with Bortezomib + Cetuximab [2]: 0.061 nM; EC50 of cell death induction, HCT116, with Bortezomib [2]: 0.051 nM; EC50 of cell death induction, HCT116, with Bortezomib + Cetuximab [2]: 0.3 nM; EC50 of cell death induction, HT1080, with Bortezomib [2]: 0.0009 nM; EC50 of cell death induction, HT1080, with Bortezomib + Cetuximab [2]: 0.007 nM

B4: Db-Glyco-scTRAIL3-FAVSGAA (other)
chain: LEASDYKDDDDKGAEVQLVESGGGLVQPGGSLRLSCAASGFSLTNYGVHWVRQAPGKGLEWLGVIWSGGNTDYNTPFTSRFTISRDNSKNTLYLQMNSLRAEDTAVYYCARALTYYDYEFAYWGQGTTVTVSSGGGGSDIQLTQSPSFLSASVGDRVTITCRASQSIGTNIHWYQQKPGKAPKLLIKYASESISGVPSRFSGSGSGTEFTLTISSLQPEDFATYYCQQNNNWPTTFGAGTKLEIKRAAAGNGTSNGTSEFGGAAAHITGTRGRSNTLSSPNSKNEKALGRKINSWESSRSGHSFLSNLHLRNGELVIHEKGFYYIYSQTYFRFQEEIKENTKNDKQMVQYIYKYTSYPDPILLMKSARNSCWSKDAEYGLYSIYQGGIFELKENDRIFVSVTNEHLIDMDHEASFFGAFAVSGAAAHITGTRGRSNTLSSPNSKNEKALGRKINSWESSRSGHSFLSNLHLRNGELVIHEKGFYYIYSQTYFRFQEEIKENTKNDKQMVQYIYKYTSYPDPILLMKSARNSCWSKDAEYGLYSIYQGGIFELKENDRIFVSVTNEHLIDMDHEASFFGAFAVSGAAAHITGTRGRSNTLSSPNSKNEKALGRKINSWESSRSGHSFLSNLHLRNGELVIHEKGFYYIYSQTYFRFQEEIKENTKNDKQMVQYIYKYTSYPDPILLMKSARNSCWSKDAEYGLYSIYQGGIFELKENDRIFVSVTNEHLIDMDHEASFFGAFAVS
modifications: two N-glycosylation sites in the peptide AAAGNGTSNGTSEFGG, shown to be glycosylated
**Q.** For B4, which “EC50 of cell death induction, Colo205, with Bortezomib” value [2] is on record?
**A.** 0.033 nM

**Q.** What about the “EC50 of cell death induction, Colo205, with Bortezomib + Cetuximab” value [2] of the same binder?
**A.** 0.074 nM

**Q.** What about the “EC50 of cell death induction, HCT116, with Bortezomib” value [2] of the same binder?
**A.** 0.066 nM

**Q.** And the “EC50 of cell death induction, HCT116, with Bortezomib + Cetuximab” value [2]?
**A.** 0.45 nM

**Q.** What about the “EC50 of cell death induction, HT1080, with Bortezomib” value [2] of the same binder?
**A.** 0.001 nM

**Q.** What about the “EC50 of cell death induction, HT1080, with Bortezomib + Cetuximab” value [2] of the same binder?
**A.** 0.01 nM

B5: Db-Glyco-scTRAIL3-FAVSGIA (other)
chain: LEASDYKDDDDKGAEVQLVESGGGLVQPGGSLRLSCAASGFSLTNYGVHWVRQAPGKGLEWLGVIWSGGNTDYNTPFTSRFTISRDNSKNTLYLQMNSLRAEDTAVYYCARALTYYDYEFAYWGQGTTVTVSSGGGGSDIQLTQSPSFLSASVGDRVTITCRASQSIGTNIHWYQQKPGKAPKLLIKYASESISGVPSRFSGSGSGTEFTLTISSLQPEDFATYYCQQNNNWPTTFGAGTKLEIKRAAAGNGTSNGTSEFGGIAAHITGTRGRSNTLSSPNSKNEKALGRKINSWESSRSGHSFLSNLHLRNGELVIHEKGFYYIYSQTYFRFQEEIKENTKNDKQMVQYIYKYTSYPDPILLMKSARNSCWSKDAEYGLYSIYQGGIFELKENDRIFVSVTNEHLIDMDHEASFFGAFAVSGIAAHITGTRGRSNTLSSPNSKNEKALGRKINSWESSRSGHSFLSNLHLRNGELVIHEKGFYYIYSQTYFRFQEEIKENTKNDKQMVQYIYKYTSYPDPILLMKSARNSCWSKDAEYGLYSIYQGGIFELKENDRIFVSVTNEHLIDMDHEASFFGAFAVSGIAAHITGTRGRSNTLSSPNSKNEKALGRKINSWESSRSGHSFLSNLHLRNGELVIHEKGFYYIYSQTYFRFQEEIKENTKNDKQMVQYIYKYTSYPDPILLMKSARNSCWSKDAEYGLYSIYQGGIFELKENDRIFVSVTNEHLIDMDHEASFFGAFAVS
modifications: glycosylated connecting peptide
**Q.** With B5 as the binder, how does the “EC50 of cell death induction, Colo205, with Bortezomib” value [2] read?
**A.** 0.019 nM

**Q.** And the “EC50 of cell death induction, Colo205, with Bortezomib + Cetuximab” value [2]?
**A.** 0.032 nM

**Q.** And the “EC50 of cell death induction, HCT116, with Bortezomib” value [2]?
**A.** 0.043 nM

**Q.** And the “EC50 of cell death induction, HCT116, with Bortezomib + Cetuximab” value [2]?
**A.** 0.161 nM

**Q.** And the “EC50 of cell death induction, HT1080, with Bortezomib” value [2]?
**A.** 0.0006 nM

**Q.** What about the “EC50 of cell death induction, HT1080, with Bortezomib + Cetuximab” value [2] of the same binder?
**A.** 0.005 nM
